Assay results reported in publication PMC9724678, “The Autophagy Receptor TAX1BP1 (T6BP) improves antigen presentation by MHC‐II molecules” (EMBO Reports, 2022).

Molecular target: T1, GFP-T6BP (TAX1BP1 / TRAF6-binding protein fused to GFP) (UniProt Q86VP1 1-789)
T1 construct: plasmid a gift from F. Buss; it is written both GFP-T6BP and T6BP-GFP; also called T6BP-GFP; source: HeLa-CIITA, transfected, in lysate
Experiment: co-IP; GFP-T6BP or GFP alone from transfected HeLa-CIITA lysate on GFP-Trap beads, Western blot for CANX
Settings: partners not purified

T1 sequence (Q86VP1 whole entry, the tested form may be a part): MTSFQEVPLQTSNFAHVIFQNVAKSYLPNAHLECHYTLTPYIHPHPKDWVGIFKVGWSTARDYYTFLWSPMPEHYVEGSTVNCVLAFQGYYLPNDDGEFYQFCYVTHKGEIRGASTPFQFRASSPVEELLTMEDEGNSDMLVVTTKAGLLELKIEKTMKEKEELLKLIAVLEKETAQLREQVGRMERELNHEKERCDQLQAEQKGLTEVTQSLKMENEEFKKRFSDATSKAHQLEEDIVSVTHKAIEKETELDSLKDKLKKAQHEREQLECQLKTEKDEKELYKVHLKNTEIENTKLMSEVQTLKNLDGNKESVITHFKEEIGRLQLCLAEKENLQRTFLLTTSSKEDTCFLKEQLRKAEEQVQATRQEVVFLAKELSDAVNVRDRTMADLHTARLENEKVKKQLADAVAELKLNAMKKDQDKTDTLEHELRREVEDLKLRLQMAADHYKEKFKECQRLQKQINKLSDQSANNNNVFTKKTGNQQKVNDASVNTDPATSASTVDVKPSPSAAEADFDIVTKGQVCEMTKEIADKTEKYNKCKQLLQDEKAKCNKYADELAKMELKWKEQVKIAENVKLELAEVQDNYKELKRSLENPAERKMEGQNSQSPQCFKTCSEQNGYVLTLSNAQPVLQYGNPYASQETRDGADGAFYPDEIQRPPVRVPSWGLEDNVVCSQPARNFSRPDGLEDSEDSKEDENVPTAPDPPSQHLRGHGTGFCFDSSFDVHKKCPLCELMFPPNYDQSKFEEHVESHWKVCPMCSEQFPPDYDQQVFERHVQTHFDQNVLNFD

fold enrichment against the GFP control: 3 fold
B1: Calnexin (CANX), endogenous (natural protein, UniProt P27824 21-592, looked up)
chain: HDGHDDDVIDIEDDLDDVIEEVEDSKPDTTAPPSSPKVTYKAPVPTGEVYFADSFDRGTLSGWILSKAKKDDTDDEIAKYDGKWEVEEMKESKLPGDKGLVLMSRAKHHAISAKLNKPFLFDTKPLIVQYEVNFQNGIECGGAYVKLLSKTPELNLDQFHDKTPYTIMFGPDKCGEDYKLHFIFRHKNPKTGIYEEKHAKRPDADLKTYFTDKKTHLYTLILNPDNSFEILVDQSVVNSGNLLNDMTPPVNPSREIEDPEDRKPEDWDERPKIPDPEAVKPDDWDEDAPAKIPDEEATKPEGWLDDEPEYVPDPDAEKPEDWDEDMDGEWEAPQIANPRCESAPGCGVWQRPVIDNPNYKGKWKPPMIDNPSYQGIWKPRKIPNPDFFEDLEPFRMTPFSAIGLELWSMTSDIFFDNFIICADRRIVDDWANDGWGLKKAADGAAEPGVVGQMIEAAEERPWLWVVYILTVALPVFLVILFCCSGKKQTSGMEYKKTDAPQPDVKEEEEEKEEEKDKGDEEEEGEEKLEEKQKSDAEEDGGTVSQEEEDRKPKAEEDEILNRSPRNRKPRRE
notes: ER-resident chaperone calnexin, endogenous; source: endogenous, HeLa-CIITA, DG-75 (B) and KG-1 (dendritic-like) lysates; endogenous in fixed HeLa-CIITA cells
